Columns and labels:
LPS-induced TNFα release = test: LPS-induced TNFalpha release in mice (Example 5); type: in vivo, C3H mice
Method: C3H mice (Elevage Janvier) (8 week old), received E. Coli's LPS (O111:B4, Sigma, 0.3 mg/kg, ip) 15 minutes after the administration of the test molecules. LPS was solubilized in sterile saline. Dexamethasone (0.1 mg/kg, sc) was used as reference. 24 h later, the animals were sacrificed and the blood was sampled. Plasma levels of TNF-αwere determined in serum using an ELISA kit (R&D). Statistical analysis was determined with an ANOVA test followed by a post-test of Dunnett.

female mice (Balb/c) = test: Dextran Sodium Sulfate-induced ulcerative colitis model; type: in vivo
Method: The DSS model of colitis mimics some aspects of the human affection such as macrophage infiltration and up regulation of inflammatory cytokines (i.e. TNFα, IL-1p, IL-6) in the colon mucosa.
Ulcerative colitis (UC) was induced in female mice (Balb/c, 20-22 g, Elevage Janvier) by Dextran Sodium Sulfate (DSS 4%) administered in drinking water (oral route). The mice had free access to DSS during 7 days. Body weight was determined daily. The severity of the UC was assessed by a clinical score estimating the constituency of the stool (0=firm, 1=loose, 2=diarrhea) and the presence of blood (0=no blood, 1=occult blood, 2=gross rectal bleeding). Seven days after the induction of the disease, the animals were sacrificed. The length and the weight of the colon were determined and the ratio Weight/Length/100 g body weight was calculated. The spleen weight was also determined. Blood was sampled to determine serum amyloid protein (SAA) using a specific ELISA.
Test substances or vehicle (PBS/0.02% BSA) was administered at days 3, 4, 5 and 6 after the induction of the UC. Enbrel® (1 mg/kg, sc) was used as reference compound. Three studies were performed as per the following table:
In Study 3, the content of IL-1β in the colon was also measured.

B1: sCD164: SEQ ID NO: 15, mature full-length CD164 extracellular domain (exons 1 to 6), expressed with C-terminal hexa-histidine tag (protein)
chain: DKNTTQHPNVTTLAPISNVTSAPVTSLPLVTTPAPETCEGRNSCVSCFNVSVVNTTCFWIECKDESYCSHNSTVSDCQVGNTTDFCSVSTATPVPTANSTAKPTVQPSPSTTSKTVTTSGTTNNTVTPTSQPVRKSTFDA
modifications: homo sapiens
- LPS-induced TNFα release (LPS-induced TNFα release; 1 mg/kg iv, 15 minutes prior to LPS, P<0.001): significantly decrease
- TNFα release after LPS induction (LPS-induced TNFα release; previous experiments in this model): decrease TNFα release

B2: sCD164-Fcm: SEQ ID NO: 18, sCD164 fused to an Fc part mutated in the Fc receptor and C1q binding regions (protein, listed as Homo sapiens)
chain: DKNTTQHPNVTTLAPISNVTSAPVTSLPLVTTPAPETCEGRNSCVSCFNVSVVNTTCFWIECKDESYCSHNSTVSDCQVGNTTDFCSVSTATPVPTANSTAKPTVQPSPSTTSKTVTTSGTTNNTVTPTSQPVRKSTFDAEPKSCDKTHTCPPCPAPEAEGAPSVFLFPPKPKDTLMISRTPEVTCVVVDVSHEDPEVKFNWYVDGVEVHNAKTKPREEQYNSTYRVVSVLTVLHQDWLNGKEYKCKVSNKALPSSIEKTISKAKGQPREPQVYTLPPSREEMTKNQVSLTCLVKGFYPSDIAVEWESNGQPENNYKTTPPVLDSDGSFFLYSKLTVDKSRWQQGNVFSCSVMHEALHNHYTQKSLSLSPGK
- clinical score (female mice (Balb/c); Study 1, 1 mg/kg, ip, day 6): −23%
- increase in serum amyloid protein A (female mice (Balb/c); Study 1, 3 mg/kg, ip): −36%
- splenomegaly (female mice (Balb/c); Study 1, 3 mg/kg, ip): −27%
- clinical score (female mice (Balb/c); Study 1, 3 mg/kg, ip, day 6): −32%
- colon reduction, length (female mice (Balb/c); Study 1, 3 mg/kg, ip, days 3-6): −21%
- body weight loss (female mice (Balb/c); Study 1, 0.3, 1, 3 mg/kg ip): not affected
- ratio weight/length (colon) (female mice (Balb/c); Study 1, 0.3, 1, 3 mg/kg ip): not affected
- colon reduction, length (female mice (Balb/c); Study 2, 0.3 mg/kg, sc): −13%
- colon reduction, ratio weight/length (female mice (Balb/c); Study 2, 0.3 mg/kg, sc): −26%
- colon reduction, length (female mice (Balb/c); Study 2, 1 mg/kg, sc): −18%
- colon reduction, ratio weight/length (female mice (Balb/c); Study 2, 1 mg/kg, sc): −46%
- body weight loss (female mice (Balb/c); Study 2, 1 mg/kg, sc, day 5 to day 7): reduced significantly
- clinical score (female mice (Balb/c); Study 2, 1 mg/kg, sc, day 6): −22%
- increase in serum amyloid protein A (female mice (Balb/c); Study 2, 3 mg/kg, sc): significantly decreased
- splenomegaly (female mice (Balb/c); Study 2, 0.3, 1, 3 mg/kg sc): not improved
- colon reduction, length (female mice (Balb/c); Study 3, 0.3 mg/kg, sc): −18%
- colon reduction, ratio weight/length (female mice (Balb/c); Study 3, 0.3 mg/kg, sc): −19%
- body weight loss (female mice (Balb/c); Study 3, 1 mg/kg, sc): did not have any effect
- clinical score (female mice (Balb/c); Study 3, 1 mg/kg, sc): tended to improve
- colon reduction, length (female mice (Balb/c); Study 3, 1 mg/kg, sc): −26%
- colon reduction, ratio weight/length (female mice (Balb/c); Study 3, 1 mg/kg, sc): −25%
- content of IL-1β in colon (female mice (Balb/c); Study 3, 1 mg/kg, sc): tended to improve
- serum amyloid A protein (female mice (Balb/c); Study 3, 1 mg/kg, sc): did not have any effect
- body weight loss (female mice (Balb/c); Study 3, 0.3 and 1 mg/kg, sc): did not have any effect
- clinical score (female mice (Balb/c); Study 3, 0.3 and 1 mg/kg, sc): trended to improve
- serum amyloid A protein (female mice (Balb/c); Study 3, 0.3 and 1 mg/kg, sc): did not have any effect
- splenomegaly (female mice (Balb/c); Study 3, 0.3 and 1 mg/kg, sc): trended to improve
- content of IL-1β in colon (female mice (Balb/c); Study 3, 0.3 and 1 mg/kg, sc (dose of the single value not stated)): −22%

Reference: patent US7803910B2, “Soluble CD164 polypeptides” (Merck Serono S.A., priority 2005, dated 2010)
